# ± gives the standard error. For part of these data: Variants at the floor of the assay were thinned out.
# B1: glmS ribozyme (parent)
# chain: AUAAAAGCGCCAGAACUACAGAAAUGUAGUUGACGAGGAGGAGGUUUAUCGAAUUUUCGGCGGAUGCCUCCAAA
# What was measured:
# Details in all cases: with glucosamine-6-phosphate
# [1] = variants of: B1; assay: kcat; higher = faster cleavage; RNA array
# In short: (§1)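 The measurements used barcoded ribozyme variants on sequenced MiSeq chips, transcribed in situ by E. coli RNA polymerase and tracked at 37 °C with a hybridised Cy3 probe. Glucosamine-6-phosphate, 40 μM to 10 mM in HEPES/KCl/Mg(OAc)2 buffer, was flowed in while tiles were imaged over ~14 h. Baseline-normalised signals, also normalised to non-cleaving reference variants, gave per-tile medians that were fit to one- or two-exponential decays for kobs. kcat and KM resulted from weighted Michaelis–Menten fits across concentrations.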
# [2] = variants of: B1; assay: KM; higher = weaker cofactor use; RNA array
# In short: as §1
# [3] = variants of: B1; assay: self-cleavage kobs at 640 uM GlcN6P; higher = faster cleavage; RNA array
# In short: as §1
# [4] = variants of: B1; assay: self-cleavage kobs at 2500 uM GlcN6P; higher = faster cleavage; RNA array
# In short: as §1
# [5] = variants of: B1; assay: self-cleavage kobs at 10000 uM GlcN6P; higher = faster cleavage; RNA array
# In short: as §1
# [6] = variants of: B1; assay: self-cleavage kobs at 160 uM GlcN6P; higher = faster cleavage; RNA array
# In short: as §1
# [7] = variants of: B1; assay: self-cleavage kobs at 40 uM GlcN6P; higher = faster cleavage; RNA array
# In short: as §1
Variant,kcat [1] [s⁻¹],KM [2] [µM],self-cleavage kobs at 640 uM GlcN6P [3] [s⁻¹],self-cleavage kobs at 2500 uM GlcN6P [4] [s⁻¹],self-cleavage kobs at 10000 uM GlcN6P [5] [s⁻¹],self-cleavage kobs at 160 uM GlcN6P [6] [s⁻¹],self-cleavage kobs at 40 uM GlcN6P [7] [s⁻¹]
C11A C68U,5.04e-05 ± 2.5e-06,459 ± 170,3.2e-05 ± 1.4e-05,3.54e-05 ± 1.4e-05,4.9e-05 ± 6.3e-06,–,–
A6U C16A,1.85e-05 ± 5.8e-06,–,–,–,–,–,–
A12C C70A,0.000198 ± 2.9e-05,1030 ± 390,6.98e-05 ± 1e-05,0.000174 ± 1.9e-05,0.000162 ± 2e-05,–,–
A12C C70G,0.000232 ± 6.8e-05,–,0.000119 ± 1.1e-05,0.000154 ± 1.8e-05,0.000352 ± 4.1e-05,7.74e-05 ± 1.7e-05,–
C11U G40U C70U,0.000108 ± 1.1e-06,1100 ± 48,–,7.62e-05 ± 2.5e-05,9.73e-05 ± 2e-05,–,–
A12G G66A,0.000586 ± 0.00018,3600 ± 1700,0.000105 ± 1.1e-05,0.000195 ± 2.3e-05,0.000496 ± 5.7e-05,2.09e-05 ± 9.7e-06,–
A12G G66C,8.51e-05 ± 6.1e-06,857 ± 290,4.42e-05 ± 1.9e-05,5.86e-05 ± 1.3e-05,8.08e-05 ± 1.3e-05,–,–
C11U C71A,0.000412 ± 2.6e-05,1790 ± 200,0.000106 ± 1.5e-05,0.00024 ± 4.4e-05,0.000354 ± 6.1e-05,4.15e-05 ± 1.7e-05,–
G7A G37C U47A,1.02e-05 ± 2.4e-06,–,–,–,–,< 1e-05,–
C10A U54A,< 1e-05,–,–,–,–,–,< 1e-05
C11U G32A,0.000453 ± 3.3e-05,1520 ± 290,0.00014 ± 3.1e-05,0.000239 ± 5.9e-05,0.000404 ± 4.4e-05,5.04e-05 ± 2.1e-05,–
C11A C61A,< 1e-05,–,–,–,–,–,–
A12U A42G,0.0985 ± 0.045,–,0.0249 ± 0.006,–,0.116 ± 0.044,0.00676 ± 0.0033,0.00296 ± 0.00037
C11U C67A,0.000277 ± 2.6e-05,801 ± 180,0.000121 ± 1.3e-05,0.000256 ± 4e-05,0.000242 ± 3e-05,4.36e-05 ± 1.8e-05,–
C11G A39U,< 1e-05,–,–,< 1e-05,–,< 1e-05,–
G7A C34U C70G,1.85e-05 ± 9.1e-06,–,–,–,–,–,–
A12G C71A,0.000639 ± 4.4e-05,4880 ± 500,7.45e-05 ± 1e-05,0.000215 ± 3.9e-05,0.00043 ± 5.9e-05,–,–
C10U C67G U69G,1.67e-05 ± 3.6e-06,–,–,–,–,–,–
A6C G59A,< 1e-05,–,–,–,< 1e-05,–,< 1e-05

# Source: the supplement of paper PMC7125110
